Measured values: article doi:10.1101/2025.05.28.656676 (bioRxiv, 2025)

B1: MBP-tagged glucocorticoid receptor ligand-binding domain (MBP-GR LBD, F602S, 520-777) (domain or fragment, UniProt P04150 520-777, looked up)
chain: IVPATLPQLTPTLVSLLEVIEPEVLYAGYDSSVPDSTWRIMTTLNMLGGRQVIAAVKWAKAIPGFRNLHLDDQMTLLQYSWMSLMAFALGWRSYRQSSANLLCFAPDLIINEQRMTLPCMYDQCKHMLYVSSELHRLQVSYEEYLCMKTLLLLSSVPKDGLKSQELFDEIRMTYIKELGKAIVKREGNSSQNWQRFYQLTKLLDSMHEVVENLLNYCFQTFLDKTMSIEFPEMLAEIITNQIPKYSNGNIKKLLFHQK

Tests used:
[1] = target: T1, Hsp90a (wild-type Hsp90) (human, UniProt P07900 1-732); assay: cryo-EM structure
[2] = target: B1; assay: SEC
[3] = target: D93N Hsp90 (human, UniProt P07900 1-732, D93N); assay: pull-down
[4] = target: Hop (human, UniProt P31948 1-543); assay: pull-down
[5] = target: T1, Hsp90a (wild-type Hsp90); assay: SEC

| binding result [1] | binding result [2] | binding result [3] | binding result [4] | binding result [5] | Binder |
| --- | --- | --- | --- | --- | --- |
| binds | – | – | – | – | CHIP E3 ubiquitin ligase (enzyme, human, UniProt Q9UNE7 1-303, looked up) MKGKEEKEGGARLGAGGGSPEKSPSAQELKEQGNRLFVGRKYPEAAACYGRAITRNPLVAVYYTNRALCYLKMQQHEQALADCRRALELDGQSVKAHFFLGQCQLEMESYDEAIANLQRAYSLAKEQRLNFGDDIPSALRIAKKKRWNSIEERRIHQESELHSYLSRLIAAERERELEECQRNHEGDEDDSHVRAQQACIEAKHDKYMADMDELFSQVDEKRKKRDIPDYLCGKISFELMREPCITPSGITYDRKDIEEHLQRVGHFDPVTRSPLTQEQLIPNLAMKEVIDAFISENGWVEDY |
| binds | binds | – | – | – | p23 (natural protein, human) MQPASAKWYDRRDYVFIEFCVEDSKDVNVNFEKSKLTFSCLGGSDNFKHLNEIDLFHCIDPNDSKHKRTDRSILCCLRKGESGQSWPRLTKERAKLNWLSVDFNNWKDWEDDSDEDMSNFDRFSEMMNNMGGDEDVDLPEVDGADDDSQDSDDEKMPDLE |
| – | – | binds | binds | binds | B1 |
| binds | – | – | – | – | MBP-tagged glucocorticoid receptor DNA binding domain, hinge and ligand binding domain (MBP-GR DBD-LBD, 418-777, F602S) (domain or fragment, UniProt P04150 418-777, looked up) PKLCLVCSDEASGCHYGVLTCGSCKVFFKRAVEGQHNYLCAGRNDCIIDKIRRKNCPACRYRKCLQAGMNLEARKTKKKIKGIQQATTGVSQETSENPGNKTIVPATLPQLTPTLVSLLEVIEPEVLYAGYDSSVPDSTWRIMTTLNMLGGRQVIAAVKWAKAIPGFRNLHLDDQMTLLQYSWMSLMAFALGWRSYRQSSANLLCFAPDLIINEQRMTLPCMYDQCKHMLYVSSELHRLQVSYEEYLCMKTLLLLSSVPKDGLKSQELFDEIRMTYIKELGKAIVKREGNSSQNWQRFYQLTKLLDSMHEVVENLLNYCFQTFLDKTMSIEFPEMLAEIITNQIPKYSNGNIKKLLFHQK |
